Assay results as given in publication PMC3353895, “Crystal Structure of a Complex of DNA with One AT-Hook of HMGA1”.

Target: T1, HMGA1 third AT-hook (DBD3) peptide (UniProt P17096 81-89)
T1 chain: RKPRGRPKK
Assay: X-ray crystallography; crystals: 5 mM MgCl2, 0.25 mM NiCl2, MPD up to 48%; 1:2 duplex:peptide; 2.27 A; only one of two AATT sites occupied; Crystallization by vapor diffusion: 25 mM Tris-HCl pH 7.5, 25 mM ammonium acetate, 5 mM MgCl2, 0.25 mM NiCl2, 5% MPD (raised to 48%), 0.2 mM DNA, 0.4 mM peptide, 4 C
Settings: blunt; self-complementary, 2 copies of the strand

B1: d(CGAATTAATTCG)2 (dsDNA)
DNA 1: CGAATTAATTCG
DNA 2: CGAATTAATTCG
  binding result: binds
